Measurements: the RNAGym collection of RNA variant scans (doi:10.1101/gr.219683.116)

B1: mRNA-splicing (parent)
chain: AGUUGCUGCUGGGAGCUCCAGCACAGUGAAAUGGACAGAAGGGCAGAGCAA

Variants of: B1
Assay: exon inclusion enrichment index; higher = more inclusion; WT1 exon 5 minigene, HEK293

Row | Variant | exon inclusion enrichment index
1 | G5C C6G U7C U10C A14C G15A | 1.07
2 | G5A U7C G8A U10C A47U G48U | 1.85
3 | G5C C6U G8C C9U U10C A35U C36U | 0.0294
4 | C6A U7C C9A U10C G26C U27A | 3.61
5 | G5A C6U U7A G8U C9A A47U G48U | 0.0462
6 | G5A U7C G8A U10C G28A | 0.733
7 | G5A U7C G8A U10C C16A | 2.46
8 | G2A U3A G5C C6A U7C G8A U10A | 0.0895
9 | C6A U7C C9A U10C G34C | 1.79
10 | C6A U7C C9A U10C A40U | 2.61
11 | C6A U7C C9A U10C G21U C22A | 2.02
12 | G5A C6G U7G C9A G38C | 0.000603
13 | G5C C6G U7C U10C C36A | 2.93
14 | G5A U7C G8A U10C C22A A23G | 2.59
15 | G5C C6A U7C G8A U10A G42A G43U | 1.25
16 | G5C C6G U7C U10C G33C G34C | 2.29
17 | G5C C6G U7C U10C C44A A45C | 4.3
18 | G5C C6G U7C U10C C44A A45G | 5.42
19 | G5A C6G U7G C9A G42C G43C | 0.0141
20 | G5A U7C G8A U10C G33A G34U | 0.361
21 | G5A U7C G8A U10C G33A G34A | 0.398

Row | Variant | exon inclusion enrichment index
22 | G5A U7C G8A U10C U32C | 3.88
23 | G5C C6G U7C U10C G21A | 2.93
24 | G5C C6G U7C U10C U17A C18U | 3.37
25 | G5C C6G U7C U10C G38C | 2.56
26 | C22A A23U | 1.56
27 | C6A U7A C9A U10A A37G G38C | 0.984
28 | G5C C6U G8C C9U U10C G21A C22U | 0.846
29 | U7G C9A U10C | 2
30 | A23C C24A | 0.968
31 | G5U G8U C9U G13A A14C | 0.61
32 | G5A C6U U7A G8U C9A G21U C22A | 0.0356
33 | C6A U7C C9A U10C G12A G13U | 1.08
34 | G5C C6A U7C G8A G11A | 0.126
35 | G5C C6U G8C C9U U10C C44A A45G | 2.98
36 | C6A U7A C9A U10A G48U | 1.17
37 | G5C C6G U7C U10C G41A | 2.7
38 | C6A U7A C9A U10A C44G A45U | 0.598
39 | G5A C6U U7A G8U C9A G13C A14U | 0.0623
40 | G5C C6G U7C U10C C24U | 1.76
41 | G2A U3C G5A C6G U7G C9A | 0.0183
42 | G5C C6G G8C U10C | 3.08

Row | Variant | exon inclusion enrichment index
43 | G5C C6A U7C G8A U10A G46A A47C | 0.439
44 | C22U A23G | 1.77
45 | G5C C6U G8C C9U U10C G38C A39G | 1.77
46 | A25C | 1.1
47 | G5A C6U U7A G8U C9A A35C C36G | 0.0383
48 | G5C C6G U7C U10C G26U | 3.19
49 | G5C C6G U7C U10C G15U | 3.45
50 | G5C C6A U7C G8A U10A C16G U17G | 0.00731
51 | C6A U7A C9A U10C G11C | 4.28
52 | G5A C6G U7G C9A G13C | 0.00103
53 | G5C C6G U7A G8A U10A | 0.321
54 | G5C C6A U7C G8A U10A A29G A30U | 0.0104
55 | G5A C6G U7G C9A A20U G21U | 0.000871
56 | G5C C6G U7C U10C G43U | 2.89
57 | C6A U7A G8A C9A U10A | 0.207
58 | C6U U7C U10C | 3.52
59 | G5A C6A U7A G8A U10C | 0.831
60 | G5U G8U C9U G42C G43C | 0.708
61 | G5A C6G U7G C9A A47G G48A | 0.000837
62 | G34U A35G | 0.142
63 | G15U C16A | 0.0156

Row | Variant | exon inclusion enrichment index
64 | G15U C16G | 0.0648
65 | G5A U7A G8U U10C | 1.96
66 | G5A U7C G8A U10C A14C G15U | 1
67 | G5A C6U U7A G8U C9A G28A A29C | 0.0311
68 | C6A U7A C9A U10A C24G | 0.763
69 | C6A U7A C9A U10A C24A | 0.545
70 | C6A U7A C9A U10A G12C G13A | 1.72
71 | G5U G8U C9U A35U C36U | 0.000565
72 | G5A C6G U7G C9A A29G A30U | 0.000871
73 | G5A C6G U7G C9A A45C | 0.00288
74 | G5U U7A C9A U10A | 0.286
75 | C6A U7A C9A U10A A23C C24G | 1.83
76 | A25C G26A | 0.448
77 | G5C C6G U7A G8C U10C | 2.57
78 | C6A U7C C9A U10C A39G A40U | 0.497
79 | G5A U7C G8A U10C A23C C24U | 1.16
80 | G5C C6G U7C U10C G13C | 1.53
81 | G5C C6G U7A C9A U10A | 0.95
82 | G5U G8U C9U A29G A30U | 0.0242
83 | G5A C6G U7G G8A | 0.0142
84 | G5A C6G | 0.00371
